Positions count from the first letter of the chain named. Numbers in names are those of the source. Values belong to the binder of their own block, whether it stands above or below them.
How the values were obtained:
[1] = molecular target: T1, human CD33 ECD 18-232-His (human, UniProt P20138 18-232); experiment: SPR, Biacore 8K, antibody captured on Protein A chip, CD33 ECD-His as analyte, 37 C, 1:1 model
T1 construct: Printed as 'CD33 ECD 18-232-His'; also called human CD33 extra-cellular domain; not shown: His tag
T1 sequence (P20138 18-232): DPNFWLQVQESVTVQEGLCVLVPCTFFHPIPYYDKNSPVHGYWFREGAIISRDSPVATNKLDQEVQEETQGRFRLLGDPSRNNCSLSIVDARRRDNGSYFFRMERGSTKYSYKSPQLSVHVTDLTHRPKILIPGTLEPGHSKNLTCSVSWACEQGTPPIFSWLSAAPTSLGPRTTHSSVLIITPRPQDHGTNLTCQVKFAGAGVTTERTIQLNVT
Protocol: (§1) The affinity and binding kinetics of the exemplified anti-human CD33 antibodies to human and cynomolgus monkey CD33 ECD 18-232-His proteins was determined by surface plasmon resonance using Biacore 8K (GE Healthcare). Briefly, per the Instrument Handbook the antibody was captured on a Biacore Protein A chip followed by flowing CD33 ECD from 200 nM down to 0.782 nM in 2-fold serial dilution in PBS-P20-BSA (0.005% surfactant P20, 0.1 mg/mL BSA). All measurements were carried out at 37° C. Multi-cycle kinetics setting that ran each analyte concentration in a separate cycle regenerating the surface after each sample injection was used. The regeneration was optimized to maintain consistent surface properties from cycle to cycle. Each cycle started with a 3 minute injection of 0.1 μg/mL of the antibody at 10 μl/min flow rate, followed by 3 min injection of antigen at 50 μl/min flow rate and a 15 min dissociation phase in PBS-P20-BSA. The chip surface was then regenerated with 30 seconds injection of pH 1.5, 10 mM glycine buffer at 50 μl/min flow rate three times. The data was fit to a 1:1 binding model to derive kₐ and kd, and to calculate KD.

[2] = molecular target: T2, cynomolgus monkey CD33 ECD 18-232-His (cynomolgus monkey); experiment: as above
T2 construct: also called cynomolgus monkey CD33 extra-cellular domain; not shown: His tag
T2 sequence (chain, as listed by the source): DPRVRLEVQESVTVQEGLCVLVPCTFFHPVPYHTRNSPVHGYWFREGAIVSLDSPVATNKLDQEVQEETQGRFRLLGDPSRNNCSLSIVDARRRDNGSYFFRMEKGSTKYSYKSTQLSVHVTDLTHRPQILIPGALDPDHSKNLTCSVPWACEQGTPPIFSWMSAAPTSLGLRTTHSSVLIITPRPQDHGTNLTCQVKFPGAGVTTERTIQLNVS
Protocol: as §1

[3] = molecular target: T1, human CD33 ECD 18-232-His; experiment: SPR, Biacore 8K, conjugate captured on Protein A chip, CD33 ECD-His as analyte, 37 C, 1:1 model
Protocol: as §1

[4] = molecular target: T2, cynomolgus monkey CD33 ECD 18-232-His; experiment: as above
Protocol: as §1

[5] = molecular target: T3, human CD33 on the cell surface of human monocytes / myeloid cells (human, UniProt P20138 18-364); experiment: FACS on human monocytes (gated from human PBMC), Alexa Fluor 647-labelled antibody, 4-fold dilutions, 30 min at 4 C, mean fluorescence intensity
T3 construct: Native CD33 on primary human monocytes from PBMC; also called cell surface CD33; SIGLEC-3
T3 sequence (P20138 18-364 limits assumed): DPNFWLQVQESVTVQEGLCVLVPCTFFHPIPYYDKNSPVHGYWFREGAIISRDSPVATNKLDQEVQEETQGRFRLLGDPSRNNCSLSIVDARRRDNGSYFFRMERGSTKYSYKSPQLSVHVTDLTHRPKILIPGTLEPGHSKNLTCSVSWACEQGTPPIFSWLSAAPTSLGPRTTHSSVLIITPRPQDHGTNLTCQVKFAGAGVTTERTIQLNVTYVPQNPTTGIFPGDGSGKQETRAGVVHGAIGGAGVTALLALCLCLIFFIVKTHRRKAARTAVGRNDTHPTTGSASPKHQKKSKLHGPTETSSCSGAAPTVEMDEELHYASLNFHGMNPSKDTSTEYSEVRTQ
Protocol: Freshly isolated cells PBMCs were resuspended at 2×10⁶ cells/mL and allowed to rest for 15 minutes at room temperature, then plated at 100 μL/well into a round bottom 96-well plate (COSTAR®) and washed with FACS buffer (PBS containing 2% fetal bovine serum from Corning®). […] Data analysis was performed using FlowJo software and statistical analysis was performed using GraphPad Prism 9.

B1: anti-human CD33 antibody Ab2 (antibody, human IgG1, kappa, L234A L235A, V domains shown)
VH: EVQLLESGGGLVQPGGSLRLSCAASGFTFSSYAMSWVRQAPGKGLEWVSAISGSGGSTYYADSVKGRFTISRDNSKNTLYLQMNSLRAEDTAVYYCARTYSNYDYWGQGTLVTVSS
VL: DIQMTQSPSSLSASVGDRVTITCQASQPTFNYLNWYQQKPGKAPKLLIYDASNLQTGVPSRFSGSGSGTDFTFTISSLQPEDIATYYCQQYEDLPTFGPGTKVDIKR
notes: Fully human IgG1AAA with S124C and A378C (EU numbering); also called anti-human CD33 Ab2
Kd [1]: 1.14 nM
koff [1]: 0.000516 s⁻¹
kon [1]: 454000 M⁻¹ s⁻¹
Kd [2]: 4.28 nM
koff [2]: 0.00279 s⁻¹
kon [2]: 653000 M⁻¹ s⁻¹

B2: anti-human CD33 Ab2 GC conjugate of Example 1b (antibody, human IgG1, kappa, L234A L235A, V domains shown)
VH: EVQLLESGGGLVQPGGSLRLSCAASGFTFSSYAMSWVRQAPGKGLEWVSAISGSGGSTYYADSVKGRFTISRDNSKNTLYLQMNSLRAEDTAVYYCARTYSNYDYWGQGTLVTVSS
VL: B1 VL
modifications: glucocorticoid receptor agonist payload-linker GC-L (Preparation 8, maleimide) conjugated to the engineered cysteines at positions 124 and 378 (EU numbering) of the heavy chain; n is 4 (average DAR 3.92 to 3.97)
Kd [3]: 1.47 nM
koff [3]: 0.000645 s⁻¹
kon [3]: 439000 M⁻¹ s⁻¹
Kd [4]: 4.65 nM
koff [4]: 0.00478 s⁻¹
kon [4]: 1.03e+06 M⁻¹ s⁻¹

Further lines, results first:

Kd [1]: 3.4 nM
koff [1]: 0.00118 s⁻¹
kon [1]: 346000 M⁻¹ s⁻¹
B3: anti-human CD33 antibody Ab1 (antibody, human IgG1, kappa, L234A L235A, V domains shown)
VH: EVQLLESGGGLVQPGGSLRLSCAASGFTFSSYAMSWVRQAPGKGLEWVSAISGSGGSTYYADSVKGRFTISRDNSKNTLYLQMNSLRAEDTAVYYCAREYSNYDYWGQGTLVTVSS
VL: B1 VL with P28D, T29V, N31R
notes: Fully human IgG1 with L234A, L235A, P329A (IgG1AAA, effector null) and engineered cysteines S124C and A378C (EU numbering), all already in the HC entry

Kd [1]: 0.854 nM
koff [1]: 0.000486 s⁻¹
kon [1]: 570000 M⁻¹ s⁻¹
Kd [2]: 0.812 nM
koff [2]: 0.00108 s⁻¹
kon [2]: 1.34e+06 M⁻¹ s⁻¹
EC50 (read off the curve) [5]: ~5 ng/mL
B4: anti-human CD33 antibody Ab3 (antibody, human IgG1, kappa, L234A L235A, V domains shown)
VH: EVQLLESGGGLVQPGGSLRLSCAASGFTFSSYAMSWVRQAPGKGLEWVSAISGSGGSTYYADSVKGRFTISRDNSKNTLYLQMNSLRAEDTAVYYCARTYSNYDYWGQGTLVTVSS
VL: B1 VL with F30Y, N31I
notes: Fully human IgG1AAA with S124C and A378C (EU numbering)
